Here are results for 3 molecules from publication PMC6325625, “The traffic ATPase PilF interacts with the inner membrane platform of the DNA translocator and type IV pili from Thermus thermophilus” (FEBS Open Bio, 2018).

What is called stoichiometry N is the number of molecules, sites or subunits per partner or assembly.

Test [1] deals with PilM (Thermus thermophilus, UniProt Q72IW8). In words: luciferase assay of co-purified ATP after TCA precipitation; also UV photo cross-linking with [alpha-32P]-ATP. It counts as binding. As to conditions: ATP retained from E. coli, none added.
Test [2] has as its target T1, PilM (Thermus thermophilus, UniProt Q72IW8, K26A).
T1 construct: full length, N-terminal His6 tag kept; pET28a, E. coli BL21 (DE3), Ni-NTA from the soluble fraction of cells co-expressing pilN-Strep; about 44 kDa monomer
In words: UV photo cross-linking and autoradiography; luciferase ATP content. Particulars: labelled compound [alpha-32P]-ATP; MN buffer pH 7.5, 5 mM MgCl2, 0.02% DDM, on ice; binding not detected.

The target in test [3] is His6-PilM-PilN-Strep complex (Thermus thermophilus HB27) (UniProt Q8VRL8).
The target in test [4] is His6-PilM(K26A)-PilN-Strep complex (Thermus thermophilus HB27) (UniProt Q8VRL8).
In test [5] the target is His6-PilF (traffic ATPase PilF, hexameric complex) (Thermus thermophilus). Kind of test: native gel or EMSA; clear-native PAGE (3-15%) of purified His6-PilF; data not shown. For orientation: Mobility shift assays separate free from complexed probe on a gel.
The target of test [6] is PilN-Strep (Thermus thermophilus HB27) (UniProt Q8VRL7). Kind of test: native gel or EMSA; 5-20% clear-native PAGE of purified His6-PilMN-Strep, His6-PilMNO-Strep and His6-PilM; bands of PilMN cut out and run on 14% SDS/PAGE.

T1 sequence (Q72IW8 entry or part of it K26A): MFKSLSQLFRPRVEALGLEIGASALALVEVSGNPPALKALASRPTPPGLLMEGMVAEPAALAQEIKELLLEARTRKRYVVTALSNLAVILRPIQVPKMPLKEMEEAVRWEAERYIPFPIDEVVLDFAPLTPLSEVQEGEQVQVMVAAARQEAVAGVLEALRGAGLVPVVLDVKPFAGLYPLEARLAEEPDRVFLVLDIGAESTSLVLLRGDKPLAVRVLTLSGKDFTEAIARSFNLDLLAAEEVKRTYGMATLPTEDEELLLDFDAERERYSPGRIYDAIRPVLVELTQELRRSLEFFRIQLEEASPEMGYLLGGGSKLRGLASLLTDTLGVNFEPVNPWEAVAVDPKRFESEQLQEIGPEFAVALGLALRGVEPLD

Turning to `Nc1ncnc2c1ncn2[C@@H]1O[C@H](COP(=O)(O)OP(=O)(O)OP(=O)(O)O)[C@@H](O)[C@H]1O` [ATP], on PilM [1], the “ATP per PilM monomer” value is recorded as 0.89 ± 0.35 ATP per PilM monomer. For the same molecule, the “UV photo cross-linking and autoradiography; luciferase ATP content” value at PilM [2] is “no ATP was found in the PilMK26A variant”.

As for “His6-PilF (traffic ATPase PilF, hexameric complex) (enzyme)”, in test [3], the ATPase activity of PilF (malachite green assay, 68 °C, 66.7 pmol PilF hexamer) with increasing amounts of PilMN, up to a ratio of 1 : 20 (PilF complex : PilMN complex) amounted to 2 fold. Further, the ATPase activity of the PilF hexamer mixed with PilM (K26A)N complex in a ratio of 1 : 20 in test [4] is 2 fold. Also, the stoichiometry N in test [5] is 6.

B1: His6-PilM (soluble PilM from cells expressing His6-pilMN-Strep) (natural protein)
chain: MFKSLSQLFRPRVEALGLEIGASALKLVEVSGNPPALKALASRPTPPGLLMEGMVAEPAALAQEIKELLLEARTRKRYVVTALSNLAVILRPIQVPKMPLKEMEEAVRWEAERYIPFPIDEVVLDFAPLTPLSEVQEGEQVQVMVAAARQEAVAGVLEALRGAGLVPVVLDVKPFAGLYPLEARLAEEPDRVFLVLDIGAESTSLVLLRGDKPLAVRVLTLSGKDFTEAIARSFNLDLLAAEEVKRTYGMATLPTEDEELLLDFDAERERYSPGRIYDAIRPVLVELTQELRRSLEFFRIQLEEASPEMGYLLGGGSKLRGLASLLTDTLGVNFEPVNPWEAVAVDPKRFESEQLQEIGPEFAVALGLALRGVEPLD
In the case of B1, in test [6], the stoichiometry N is 1 PilM : PilN and the stoichiometry PilM : PilN of the larger (~195 kDa) oligomer, copies of each chain (copies of each chain) amounted to 3.
